Results taken from publication PMC9067375, “Biochemical and crystallization analysis of the CENP-SX–DNA complex” (Acta Crystallographica. Section F, Structural Biology …, 2022).

Biological target: T1, CENP-S (MHF1), chicken, full-length (Gallus gallus)
T1 construct: CENP-S (MHF1), Gallus gallus, from cDNA; called full-length CENP-S; source: E. coli One Shot BL21(DE3) pLysS RARE2; prepared according to previous reports
T1 chain: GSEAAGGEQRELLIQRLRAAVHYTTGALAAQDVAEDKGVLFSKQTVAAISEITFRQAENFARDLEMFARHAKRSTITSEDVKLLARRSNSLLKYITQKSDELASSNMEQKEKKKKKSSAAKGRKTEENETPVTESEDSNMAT
Test: SDS-PAGE of the contents of crystals; crystals grown from the FANCM–CENP-SX pentamer (50 µM) with dsDNA in about 30% 1,4-dioxane, 293 K; crystals, solution and film analysed by 15% SDS–PAGE, Coomassie Brilliant Blue
Details: both partners purified

binding result: binds
B1: CENP-X (MHF2), chicken (natural protein, Gallus gallus)
chain: GYEEREGGFRKETVERLLRLHFRDGRTRVNGDALLLMAELLKVFVREAAARAARQAQAEDLEKVDIEHVEKVLPQLLLDFV
notes: CENP-X (MHF2), Gallus gallus, from cDNA; source: E. coli One Shot BL21(DE3) pLysS RARE2; prepared according to previous reports
